Experimental data from patent US20090068224A1, “METHOD TO IDENTIFY POLYPEPTIDE TOLL-LIKE RECEPTOR (TLR) LIGANDS” (VAXINNATE CORPORATION, priority 2005, published 2009).

Each substance was assayed against human TLR2 and human CD14 (293.hTLR2.hCD14 cells) (Homo sapiens, UniProt O60603) (assay: Biopanning of pooled 10, 15 and 20 amino acid random peptide phage display libraries, sequencing of enriched clones). Conditions: percentage of all clones sequenced having given peptide sequence; 96 clones picked after 4 rounds of biopanning, TLRlo parental HEK293, TLRhi 293.hTLR2.hCD14.
Format: binding
Procedure: (§1) Screening of phage display libraries by biopanning: Phage display libraries are screened for peptide TLR ligands according to the following procedure. The phage display library is incubated on an in vitro cultured monolayer of cells that express minimal amounts of the TLR of interest (TLR^lo) in order to reduce non-specific binding, and then transferred to an in vitro suspension culture of cells expressing the relevant TLR (TLR^hi) to capture phage with binding specificity for the target TLR. After several washes with PBS to remove phage remaining unbound to the TLR^hi cells, TLR^hi cell-bound phages are harvested by centrifugation. The TLR^hi cells with bound phage are incubated with E. coli (strain BLT5615) in order to amplify the phage. This process is repeated three or more times to yield a phage population enriched for high affinity binding to the target TLR.
Libraries of phage displaying random peptides 10, 15 and 20 amino acids in length were constructed essentially as described for the pentameric random peptide library, except that the phosphorylated oligonucleotides used were 30, 45, and 60 nucleotides in length, respectively.
(§2) Sequencing of phage inserts: Individual phage clones from the enriched pool are isolated via plaque formation in E. coli. The DNA inserts of individual phage are amplified in PCR using the commercially available primers T7SelectUP (5′-GGAGCTGTCGTATTCCAGTC-3′; SEQ ID NO: 37; Novagen, catalog #70005) and T7SelectDOWN (5′-AACCCCTCAAGACCCGTTTA-3′; SEQ ID NO: 38; Novagen, catalog #70006). The PCR product DNA is purified using the QIAquick 96 PCR Purification Kit (Qiagen) and subjected to DNA sequencing using T7SelectUP and T7SelectDOWN primers.
We also constructed 10, 15, and 20 amino acid random peptide phage display libraries in T7SELECT phage. These phage display libraries were pooled in equal proportion and then screened by biopanning as described in Example 3. […] Of the 96 clones analyzed three peptide sequences were particularly abundant (see Table 8). […]

human TLR2 and human CD14 (293.hTLR2.hCD14 cells), sequence (O60603 21-784): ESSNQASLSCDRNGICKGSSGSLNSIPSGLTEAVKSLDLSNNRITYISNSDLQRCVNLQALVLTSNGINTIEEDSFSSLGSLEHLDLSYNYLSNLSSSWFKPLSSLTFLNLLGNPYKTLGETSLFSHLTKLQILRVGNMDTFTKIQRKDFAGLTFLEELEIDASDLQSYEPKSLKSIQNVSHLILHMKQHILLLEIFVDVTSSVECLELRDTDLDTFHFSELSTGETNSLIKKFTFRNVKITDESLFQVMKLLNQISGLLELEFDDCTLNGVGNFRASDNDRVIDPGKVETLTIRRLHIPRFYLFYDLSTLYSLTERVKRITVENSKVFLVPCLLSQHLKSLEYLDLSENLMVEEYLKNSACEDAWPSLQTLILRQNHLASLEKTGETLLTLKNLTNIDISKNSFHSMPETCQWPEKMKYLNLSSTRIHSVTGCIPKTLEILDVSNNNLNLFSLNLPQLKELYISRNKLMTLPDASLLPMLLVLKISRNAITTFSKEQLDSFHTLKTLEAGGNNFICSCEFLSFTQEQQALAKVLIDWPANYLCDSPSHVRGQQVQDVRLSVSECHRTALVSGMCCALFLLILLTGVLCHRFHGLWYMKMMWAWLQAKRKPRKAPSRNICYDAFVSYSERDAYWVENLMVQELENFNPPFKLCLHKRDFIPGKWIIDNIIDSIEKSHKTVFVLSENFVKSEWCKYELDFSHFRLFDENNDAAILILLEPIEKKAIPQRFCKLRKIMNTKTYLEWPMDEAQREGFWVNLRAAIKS

Row | Substance | % Abundance [%]
1 | GRRGLCRGCRTRGRIKQLQSAHK [peptide TLR2 ligand from phage display] | 16.1
2 | KGGVGPVRRSSRLRRTTQPG [peptide TLR2 ligand from phage display] | 33.3
3 | RWGYHLRDRKYKGVRSHKGVPR [peptide TLR2 ligand from phage display] | 19.4

The substances below were run against human TLR2 (293.hTLR2 cells) (Homo sapiens, UniProt O60603) (assay: Biopanning of pentameric random peptide phage display library, sequencing of enriched clones). Conditions: percentage of all clones sequenced (n = 109) having given peptide sequence; after 4 rounds of biopanning, TLRlo parental HEK293, TLRhi 293.hTLR2; peptides with identity to known microbial proteins.
Format: binding
Procedure: as §1
In each round of biopanning, the harvested phage that are bound to TLR^hi cells can be titred prior to amplification, amplified, and then titred again prior to initiation of the next cycle of biopanning. In this way, it is possible to determine the percent (%) of input phage in each cycle that are ultimately harvested from the TLR^hi cells. This calculation provides a round-by-round measure of enrichment within the phage display library for phage that display TLR-binding peptides.
Construction of random peptide libraries (RPL): A pentameric random peptide phage display library of T7SELECT phage was constructed essentially as described in Example 2. A pair of phosphorylated oligonucleotides with the sequence NNBNNBNNBNNBNNB (where N=A/G/C/T, B=G/C/T) flanked at the 5′ and 3′ ends by EcoRI and HindIII sites, respectively, was synthesized. Equimolar amounts of the oligonucleotides were annealed by heating for 5 min at 90° C. with gradual cooling to 25° C. The double stranded DNA was ligated to T7Select 10-3 bacteriophage vector (Novagen) that had been previously digested with EcoRI and HindIII. The ligation reactions were packaged in vitro and titred using the host E. coli strain […] that was grown in M9TB (Novagen), generating 2.5×10^7 clones, representing about 75% coverage of the library. The recombinant phage were subjected to several rounds of amplification to generate a total library of 1.35×10^12 phage, ensuring representation in excess of 5×10^4 fold for each clone in the library.
as §2
We constructed a pentameric random peptide phage display library in T7 phage. This phage library was then screened by biopanning as described in Example 3. For this screen, the TLR^lo cells were parental HEK293 (TLR2^−) cells, and the TLR^hi cells were HEK293 cells ectopically expressing human TLR2 (293.hTLR2, see Example 1, above). Phage bound to 293.hTLR2 cells were harvested, titred, and amplified prior to initiation of the each cycle of panning. In this way, it was possible to determine the % of input phage in each cycle that was ultimately harvested from the TLR2^hi cells.
After 4 rounds of biopanning, individual phage clones from the enriched pool were isolated via plaque formation in E. coli. […] phage clones were randomly picked for sequencing. Of the 109 individual clones examined the motif DPDSG was predominant (see Tables 6 and 7). […]

human TLR2 (293.hTLR2 cells), sequence (O60603 21-784): as the sequence (O60603 21-784) above

Row | Substance | % Abundance [%]
4 | ADTHQ [peptide TLR2 ligand from phage display] | 0.9
5 | AWAGT [peptide TLR2 ligand from phage display] | 0.9
6 | CVWLQ [peptide TLR2 ligand from phage display] | 0.9
7 | GPLLH [peptide TLR2 ligand from phage display] | 0.9
8 | HLLPG [peptide TLR2 ligand from phage display] | 0.9
9 | IGRFR [peptide TLR2 ligand from phage display] | 2.7
10 | IHVVP [peptide TLR2 ligand from phage display] | 0.9
11 | IMWFP [peptide TLR2 ligand from phage display] | 0.9
12 | IYKLA [peptide TLR2 ligand from phage display] | 0.9
13 | KGWF [peptide TLR2 ligand from phage display] | 0.9
14 | KYMPH [peptide TLR2 ligand from phage display] | 0.9
15 | LRQGR [peptide TLR2 ligand from phage display] | 0.9
16 | MFGVP [peptide TLR2 ligand from phage display] | 0.9
17 | MGTLP [peptide TLR2 ligand from phage display] | 1.8
18 | NYRRW [peptide TLR2 ligand from phage display] | 0.9
19 | RVVAP [peptide TLR2 ligand from phage display] | 0.9
20 | SHIAL [peptide TLR2 ligand from phage display] | 0.9
21 | THKPK [peptide TLR2 ligand from phage display] | 0.9
22 | VGKND [peptide TLR2 ligand from phage display] | 0.9

Same assay, conditions: percentage of all clones sequenced (n = 109) having given peptide sequence; after 4 rounds of biopanning, TLRlo parental HEK293, TLRhi 293.hTLR2; peptides with no homology to known proteins

Row | Substance | % Abundance [%]
23 | ACGVY [peptide TLR2 ligand from phage display] | 0.92
24 | AGCFS [peptide TLR2 ligand from phage display] | 0.92
25 | AVRLS [peptide TLR2 ligand from phage display] | 0.92
26 | CGPKL [peptide TLR2 ligand from phage display] | 0.92
27 | EVCAP [peptide TLR2 ligand from phage display] | 0.92
28 | FCGLG [peptide TLR2 ligand from phage display] | 0.92
29 | GGKLS [peptide TLR2 ligand from phage display] | 0.92
30 | IMRHP [peptide TLR2 ligand from phage display] | 0.92
31 | KCQSF [peptide TLR2 ligand from phage display] | 0.92
32 | MISS [peptide TLR2 ligand from phage display] | 0.92
33 | MRRIL [peptide TLR2 ligand from phage display] | 0.92
34 | NPPTT [peptide TLR2 ligand from phage display] | 0.92
35 | NRFGL [peptide TLR2 ligand from phage display] | 0.92
36 | NRTVF [peptide TLR2 ligand from phage display] | 0.92
37 | PESGV [peptide TLR2 ligand from phage display] | 0.92
38 | RGGF [peptide TLR2 ligand from phage display] | 0.92
39 | RGGSK [peptide TLR2 ligand from phage display] | 3.67
40 | SGGLF [peptide TLR2 ligand from phage display] | 0.92
41 | SRHGR [peptide TLR2 ligand from phage display] | 0.92
42 | VSEGV [peptide TLR2 ligand from phage display] | 3.67

The substances below were run against TLR2 (Homo sapiens, UniProt O60603) (assay: T7 phage biopanning, 4 rounds (negative on parental HEK293, positive on 293.hTLR2 cells); share of 109 sequenced clones). Conditions: not given.
TLR2, sequence (O60603 21-784 limits assumed): as the sequence (O60603 21-784) above

Row | Substance | % ABUNDANCE [%]
43 | ACGVY (peptide) | 0.92
44 | ADTHQ (peptide) | 0.9
45 | AGCFS (peptide) | 0.92
46 | AVRLS (peptide) | 0.92
47 | AWAGT (peptide) | 0.9
48 | CGPKL (peptide) | 0.92
49 | CVWLQ (peptide) | 0.9
50 | EVCAP (peptide) | 0.92
51 | FCGLG (peptide) | 0.92
52 | GGKLS (peptide) | 0.92
53 | GPLLH (peptide) | 0.9
54 | HLLPG (peptide) | 0.9
55 | IGRFR (peptide) | 2.7
56 | IHVVP (peptide) | 0.9
57 | IMRHP (peptide) | 0.92
58 | IMWFP (peptide) | 0.9
59 | IYKLA (peptide) | 0.9
60 | KCQSF (peptide) | 0.92
61 | KGWF (peptide) | 0.9
62 | KYMPH (peptide) | 0.9

Row | Substance | % ABUNDANCE [%]
63 | LRQGR (peptide) | 0.9
64 | MFGVP (peptide) | 0.9
65 | MGTLP (peptide) | 1.8
66 | MISS (peptide) | 0.92
67 | MRRIL (peptide) | 0.92
68 | NPPTT (peptide) | 0.92
69 | NRFGL (peptide) | 0.92
70 | NRTVF (peptide) | 0.92
71 | NYRRW (peptide) | 0.9
72 | PESGV (peptide) | 0.92
73 | RGGF (peptide) | 0.92
74 | RGGSK (peptide) | 3.67
75 | RVVAP (peptide) | 0.9
76 | SGGLF (peptide) | 0.92
77 | SHIAL (peptide) | 0.9
78 | SRHGR (peptide) | 0.92
79 | THKPK (peptide) | 0.9
80 | VGKND (peptide) | 0.9
81 | VSEGV (peptide) | 3.67
